T1: RXR interacting protein, RB204 (human, UniProt O75064 240-1496, limits assumed)
T1 construct: Prey clone from a two-hybrid cDNA library (human bone and cartilage cells) in a vector derived from pJG4-5
T1 sequence: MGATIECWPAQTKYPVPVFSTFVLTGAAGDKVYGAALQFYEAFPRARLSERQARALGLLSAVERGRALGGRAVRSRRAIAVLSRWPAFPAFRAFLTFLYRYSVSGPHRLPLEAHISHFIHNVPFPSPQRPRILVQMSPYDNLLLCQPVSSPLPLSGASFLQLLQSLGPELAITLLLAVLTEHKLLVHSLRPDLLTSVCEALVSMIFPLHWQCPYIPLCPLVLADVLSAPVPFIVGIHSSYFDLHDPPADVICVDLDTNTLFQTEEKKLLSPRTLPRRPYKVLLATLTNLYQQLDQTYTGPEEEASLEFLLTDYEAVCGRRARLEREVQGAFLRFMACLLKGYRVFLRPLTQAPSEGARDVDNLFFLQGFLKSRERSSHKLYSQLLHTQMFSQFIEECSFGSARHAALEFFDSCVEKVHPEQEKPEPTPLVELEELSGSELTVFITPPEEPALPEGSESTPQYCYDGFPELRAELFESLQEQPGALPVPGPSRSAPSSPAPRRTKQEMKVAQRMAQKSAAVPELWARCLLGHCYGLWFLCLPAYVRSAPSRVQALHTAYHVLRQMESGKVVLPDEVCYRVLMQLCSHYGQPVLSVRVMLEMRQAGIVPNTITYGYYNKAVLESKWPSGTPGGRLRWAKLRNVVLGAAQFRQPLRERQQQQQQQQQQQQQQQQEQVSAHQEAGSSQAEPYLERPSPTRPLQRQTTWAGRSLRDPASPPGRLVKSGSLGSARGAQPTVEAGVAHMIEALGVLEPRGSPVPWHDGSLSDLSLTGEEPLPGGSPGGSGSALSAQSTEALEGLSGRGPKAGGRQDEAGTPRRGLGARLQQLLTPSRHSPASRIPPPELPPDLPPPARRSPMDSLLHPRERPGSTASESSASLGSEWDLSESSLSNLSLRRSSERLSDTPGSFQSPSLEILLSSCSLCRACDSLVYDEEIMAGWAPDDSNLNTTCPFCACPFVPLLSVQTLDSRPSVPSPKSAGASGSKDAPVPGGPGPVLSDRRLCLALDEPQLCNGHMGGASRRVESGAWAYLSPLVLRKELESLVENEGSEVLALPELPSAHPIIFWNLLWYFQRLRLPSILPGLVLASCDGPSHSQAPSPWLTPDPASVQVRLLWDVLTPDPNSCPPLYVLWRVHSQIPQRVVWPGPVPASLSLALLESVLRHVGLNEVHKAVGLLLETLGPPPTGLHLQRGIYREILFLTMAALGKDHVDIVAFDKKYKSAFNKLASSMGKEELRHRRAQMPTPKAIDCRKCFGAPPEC

B1: ERb (receptor, UniProt Q92731 248-530, looked up)
chain: SGGHAPRVRELLLDALSPEQLVLTLLEAEPPHVLISRPSAPFTEASMMMSLTKLADKELVHMISWAKKIPGFVELSLFDQVRLLESCWMEVLMMGLMWRSIDHPGKLIFAPDLVLDRDEGKCVEGILEIFDMLLATTSRFRELKLQHKEYLCVKAMILLNSSMYPLVTATQDADSSRKLAHLLNAVTDALVWVIAKSGISSQQQSMRLANLLMLLSHVRHASNKGMEHLLNMKCKNVVPVYDLLLEMLNAHVLRGCKSSITGSECSPAEDSKSKEGSQNPQSQ
notes: Member of the panel of nuclear hormone receptors in the directed two-hybrid analysis; the construct is not described
B2: HNF4g (receptor, UniProt Q14541 99-408, looked up)
chain: SNIPSINTLAQAEVRSRQISVSSPGSSTDINVKKIASIGDVCESMKQQLLVLVEWAKYIPAFCELPLDDQVALLRAHAGEHLLLGATKRSMMYKDILLLGNNYVIHRNSCEVEISRVANRVLDELVRPFQEIQIDDNEYACLKAIVFFDPDAKGLSDPVKIKNMRFQVQIGLEDYINDRQYDSRGRFGELLLLLPTLQSITWQMIEQIQFVKLFGMVKIDNLLQEMLLGGASNDGSHLHHPMHPHLSQDPLTGQTILLGPMSTLVHADQISTPETPLPSPPQGSGQEQYKIAANQASVISHQHLSKQKQL
notes: as for B1
B3: PPARa (receptor, UniProt Q07869 167-468, looked up)
chain: SHNAIRFGRMPRSEKAKLKAEILTCEHDIEDSETADLKSLAKRIYEAYLKNFNMNKVKARVILSGKASNNPPFVIHDMETLCMAEKTLVAKLVANGIQNKEAEVRIFHCCQCTSVETVTELTEFAKAIPGFANLDLNDQVTLLKYGVYEAIFAMLSSVMNKDGMLVAYGNGFITREFLKSLRKPFCDIMEPKFDFAMKFNALELDDSDISLFVAAIICCGDRPGLLNVGHIEKMQEGIVHVLRLHLQSNHPDDIFLFPKLLQKMADLRQLVTEHAQLVQIIKKTESDAALHPLLQEIYRDMY
notes: as for B1
B4: PPARd (receptor, UniProt Q03181 139-441, looked up)
chain: SHNAIRFGRMPEAEKRKLVAGLTANEGSQYNPQVADLKAFSKHIYNAYLKNFNMTKKKARSILTGKASHTAPFVIHDIETLWQAEKGLVWKQLVNGLPPYKEISVHVFYRCQCTTVETVRELTEFAKSIPSFSSLFLNDQVTLLKYGVHEAIFAMLASIVNKDGLLVANGSGFVTREFLRSLRKPFSDIIEPKFEFAVKFNALELDDSDLALFIAAIILCGDRPGLMNVPRVEAIQDTILRALEFHLQANHPDAQYLFPKLLQKMADLRQLVTEHAQMMQRIKKTETETSLHPLLQEIYKDMY
notes: as for B1

The binders below were run against T1, RXR interacting protein, RB204 (assay: two-hybrid, directed analysis against a panel of nuclear hormone receptors).
Protocol: Screening was performed as per standard protocols (Golemis et al., Current protocols in molecular biology, 20.0.1,1999). […] RB204 interacts weakly with ERa in the presence of estradiol. Sequence analysis identified an LXXLL nuclear hormone interaction motif within the RB204 open reading frame.

Row | binding result | Binder
1 | no binding | B1
2 | no binding | B2
3 | no binding | B3
4 | no binding | B4
